These results are taken from patent publication US20240207216A1, “COMPOSITIONS AND METHOD FOR TREATING GUT PERMEABILITY CAUSED BY HYDROGEN SULFIDE PRODUCING BACTERIA” (UNM RAINFOREST INNOVATIONS, priority 2022, published 2024).

Assay [1] concerns Desulfovibrio desulfuricans. To be noted: cited from earlier work.
Another assay relates to occludin. The assay can be described thus: Occludin localization by immunofluorescence in DSV-infected cells. The following applies: IAP pre-treatment, DSV infection (DSV+IAP). In kind it is cell-based, Human.
Assay [2] has as its system Snail. The assay is described as follows: DSV-induced Snail nuclear localization by immunofluorescence. In kind it is cell-based, Human. To be noted: IAP pre-treatment, DSV infection; vs DSV+Veh. On the procedure: FIG. 5. Intestinal Alkaline Phosphatase inhibits DSV-induced permeability by inhibiting Snail. Polarized Caco-2 cells were pre-treated with IAP (500 U/ml) at the apical and the basolateral surface for 24 hours prior to challenge with D. vulgaris. (A) FITC-dextran was added to the cells apically after 24 hours infection with D. vulgaris. Fluorescence was measured by taking out 100 μl medium from the basolateral surface after one-hour incubation. Graph represents Mean±SEM of % FITC-flux compared to uninfected control cells from at least three independent experiments. **p<0.01. (B) Snail protein expression was analyzed by Western blotting in cells pre-treated with or without IAP followed by infection with D. vulgaris. The solution in which IAP was supplied was used as a Vehicle control. Actin was used as a loading control. (C) Quantification of Western blot for detection of Snail. Graph represents Mean±SEM of ratio of Snail/Actin and values were normalized to control from at least three independent experiments. *p<0.05. (D) Cells were pre-treated with or without IAP followed by infection with D. vulgaris. Cells were fixed with 4% paraformaldehyde and probed by immunofluorescence for Snail staining. Graph represents quantification of % cells showing nuclear staining of Snail in control, DSV+Vehicle (Veh), or DSV+IAP treated groups. […]

Assay [3] deals with Snail. The assay is described as follows: DSV-induced Snail protein expression by Western blot. In kind it is cell-based, Human. To be noted: IAP 500 U/ml pre-treatment 24 h, DSV 24 h; vs DSV+Veh. On the procedure:
FIG. 16. Rapamycin reduces DSV-induced Snail protein expression. Polarized Caco-2 cells were treated with 100 nM rapamycin for two hours, followed by DSV infection (MOI 20) for 24 hours. Cells were harvested and lysed. (A) Protein lysate was analyzed for Snail expression by Western blotting. (B) Quantitation of Snail expression from Western blot in (A). DSV: 7.14±0.73; DSV+Rapamycin: 3.10±0.74, **p<0.01.
Human colonic epithelial cells Caco-2 were purchased from the American Type Culture Collection (ATCC, Manassas, VA). Cells were grown in DMEM+20% FBS+penicillin and streptomycin (Thermo Fisher Scientific, Inc., Waltham, MA). Cells were grown at 37° C. in a humidified incubator with 5% CO2. To allow polarization and differentiation, cells were seeded at a density of 5×10^3 cells/well in 12-well 0.4 μm trans-well inserts for three weeks. Twenty-four hours before infection, growth medium was replaced with colorless medium (DMEM+20^0/o FBS) without antibiotics. […]
Cells were lysed in lysis buffer (Thermo Fisher Scientific, Inc., Waltham, MA; catalog #87787) containing protease and phosphatase inhibitors (Thermo Fisher Scientific, Inc., Waltham, MA; catalog #1861281) for 20 minutes at 4° C. with shaking. […] Protein concentration in the supernatants was determined with Bradford reagent (Bio-Rad Laboratories, Inc., Hercules, CA). […]
Background: A western blot detects proteins with antibodies after separation by electrophoresis.

A further assay concerns polarized Caco-2 cells. The assay is described as follows: DSV-induced paracellular permeability, 4 kDa FITC-dextran flux. In kind it is cell-based, Human. To be noted: IAP 500 U/ml apical and basolateral, 24 h before DSV MOI 20 for 24 h; vs DSV+Veh. On the procedure: FIG. 7. Rapamycin reduces DSV-induced paracellular permeability. Human Caco-2 cells were grown in 0.4 μm trans-well inserts for three weeks to generate polarized intestinal epithelial monolayers. Cells were treated with 100 nM rapamycin, an inducer of autophagy, for two hours followed by DSV infection (MOI 20) for 24 hours. Barrier integrity was assessed by measuring paracellular flux of 4 kDa FITC-Dextran.
Human colonic epithelial cells Caco-2 were purchased from the American Type Culture Collection (ATCC, Manassas, VA). Cells were grown in DMEM+20% FBS+penicillin and streptomycin (Thermo Fisher Scientific, Inc., Waltham, MA). Cells were grown at 37° C. in a humidified incubator with 5% CO2. […]
Tight junction barrier integrity in 21-day old polarized Caco-2 cells grown in 12-well trans-well plates was assessed via transepithelial electric resistance (TEER) using EVOM meter (World Precision Instruments, LLC, Sarasota, FL). […] Paracellular permeability was quantified by measuring FITC-dextran flux (Fluorescein isothiocyanate-dextran 4000 (FD-4), Sigma-Aldrich, St. Louis, MO). […] After one hour of incubation, 100 μl of the basolateral medium was collected and analyzed for the presence of FITC fluorescence. Fluorescence was measured at the wavelengths of excitation at 485 nm and emission at 520 nm using a plate reader (Synergy HTX Multi-Mode Reader, BioTek, Winooski, VT). […]

On to `[Bi]` [bismuth], for which the “growth of Desulfovibrio desulfuricans” value in assay [1] was “inhibits the growth”.

B1: intestinal alkaline phosphatase (protein, UniProt P09923 20-503, looked up)
Intestinal-type alkaline …: VIPAEEENPAFWNRQAAEALDAAKKLQPIQKVAKNLILFLGDGLGVPTVTATRILKGQKNGKLGPETPLAMDRFPYLALSKTYNVDRQVPDSAATATAYLCGVKANFQTIGLSAAARFNQCNTTRGNEVISVMNRAKQAGKSVGVVTTTRVQHASPAGTYAHTVNRNWYSDADMPASARQEGCQDIATQLISNMDIDVILGGGRKYMFPMGTPDPEYPADASQNGIRLDGKNLVQEWLAKHQGAWYVWNRTELMQASLDQSVTHLMGLFEPGDTKYEIHRDPTLDPSLMEMTEAALRLLSRNPRGFYLFVEGGRIDHGHHEGVAYQALTEAVMFDDAIERAGQLTSEEDTLTLVTADHSHVFSFGGYTLRGSSIFGLAPSKAQDSKAYTSILYGNGPGYVFNSGVRPDVNESESGSPDYQQQAAVPLSSETHGGEDVAVFARGPQAHLVHGVQEQSFVAHVMAFAACLEPYTACDLAPPACTTD
notes: host defense protein produced by enterocytes in the small intestine
On to B1, for which the occludin staining entry in the assay with occludin is given as “comparable to control”. Further, in the assay on Snail [2], the “percentage of cells with nuclear localization of Snail” value is listed as “significant reduction”. In the assay on Snail [3], the Snail protein expression result is “significantly reduced”. Further, the “D. vulgaris-induced FITC-dextran flux” value with polarized Caco-2 cells is on record as “inhibited”.
